The subject of one data set is T1, O=C(O)CC(=O)C(=O)O.
T1 construct: recombinant from pET16b-ACMSD, purified; Zn-dependent homodimer with Arg239* from adjacent subunit
Description: purified protein. The class given is biochemical, Pseudomonas fluorescens. The note with it: HEPES pH 7.0, keto to enol form.

Substrate in the data set “purified protein”: O=C(O)CC(=O)C(=O)O
Description: purified protein. The note with it: HEPES pH 7.0, Zn enzyme, keto to enol form.

Data set [1] concerns the molecule itself. Description: crystal structure; malonate-bound wild-type ACMSD, 10 mg/ml (270 uM); 50 mM malonate in place of Tacsimate, 0.1 M sodium citrate tribasic pH 5.6, 12% (w/v) PEG 3350; 2.21 A.

This note sets out measurements from publication PMC11650718, “α-Amino-β-carboxymuconate-ε-semialdehyde decarboxylase catalyzes enol/keto tautomerization of oxaloacetate” (The Journal of Biological Chemistry, 2024).

The Km is the concentration of substrate that gives half-maximal velocity. For orientation: kcat means the maximal rate divided by the concentration of active sites. Usually kcat/Km stands for the second-order rate constant that governs catalysis at low substrate concentration. Turning to “ACMSD (pfACMSD) (Pseudomonas fluorescens; H228A)”, in the data set with O=C(O)CC(=O)C(=O)O, the Km was determined as 570 ± 130 µM, the kcat was 2.98 ± 0.35 s⁻¹ and the kcat/Km was determined as 5200 M⁻¹ s⁻¹.
On the same counts, the results for “ACMSD (pfACMSD) (Pseudomonas fluorescens; W194A)” are 800 ± 80 µM, 4.18 ± 0.25 s⁻¹ and 5200 M⁻¹ s⁻¹.

B1: α-amino-β-carboxymuconate-ε-semialdehyde decarboxylase (ACMSD) from Pseudomonas fluorescens KU-7 (enzyme)
chain: MKKPRIDMHSHFFPRISEQEAAKFDANHAPWLQVSAKGDTGSIMMGKNNFRPVYQALWDPAFRIEEMDAQGVDVQVTCATPVMFGYTWEANKAAQWAERMNDFALEFAAHNPQRIKVLAQVPLQDLDLACKEASRAVAAGHLGIQIGNHLGDKDLDDATLEAFLTHCANEDIPILVHPWDMMGGQRMKKWMLPWLVAMPAETQLAILSLILSGAFERIPKSLKICFGHGGGSFAFLLGRVDNAWRHRDIVREDCPRPPSEYVDRFFVDSAVFNPGALELLVSVMGEDRVMLGSDYPFPLGEQKIGGLVLSSNLGESAKDKIISGNASKFFNINV
notes: ACMSD from Pseudomonas fluorescens KU-7, UniProt Q83V25; Zinc-dependent metalloenzyme; also called pfACMSD; wild-type ACMSD; source: stored in 25 mM HEPES pH 7.0
In the case of B1, in “purified protein”, the Km was found to be 1120 ± 140 µM, the turnover number (kcat) came out at 6.51 s⁻¹ and the kcat/Km turned out to be 5800 M⁻¹ s⁻¹. Besides, in data set [1], the binding result was “binds”.
